The target in assay [1] is T1, leucine zipper-based CAR (ZipR-CAR), e.g. EE12RR345L:CD28zeta.
T1 construct: Used where the text speaks of 'the ZipR-CAR' without naming the spacer; Expressed on T cells; also called leucine zipper receptor-based CAR; EE-CAR
Kind of assay: co-expression in T cells (FIG. 8).

For assay [2], the target named is T2, membrane-bound leucine zipper (EE12RR345L).
T2 construct: Expressed on the surface of the transduced cell; not shown: spacer, transmembrane and any intracellular part of the construct of this experiment are not specified
As to the kind of experiment: both co-transduced into the same cell; affinity tag detected on the cell surface by flow cytometry.

Where no end group is shown, it is not given here.

B1: IL-3 zipperkine (IL-3 cytokine with C-terminal FLAG-tag and RR12EE345L leucine zipper) (ligand)
chain: ASISGRDTHRLTRTLNCSSIVKEIIGKLPEPELKTDDEGPSLRNKSFRRVNLSKFVESQGEVDPEDRYVIKSNLQKLNCCLPTSANDSALPGVFIRDLDDFRKKLRFYMVHLNDLETVLTSRPPQPASGSVSPNRGTVECGSGDYKDDDDKLEIRAAFLRQRNTALRTEVAELEQEVQRLENEVSQYETRYGPLGGGK
Regarding B1, the binding result in assay [1] is “binds”.

B2: RR12EE345L leucine zipper with a linked affinity tag (peptide, not shown: small tags and cut ends)
chain: LEIRAAFLRQRNTALRTEVAELEQEVQRLENEVSQYETRYGPLGGGK
modifications: not fully specified (N-terminus)
notes: Secreted tagged zipper of the two-vector sorting system
Regarding B2, in assay [2], the binding result is recorded as “binds”.

Values taken from patent US20210171601A1 (Memorial Sloan Kettering, published 2021).
